Laboratory results reported in paper PMC11620640.

Each substance was assayed against SARS-CoV-2 Omicron BA.2 spike RBD (UniProt P0DTC2) (assay: SPR).

Substance	Kd
raccoon dog ACE2 (rdACE2), peptidase domain (PD), wild type (from UniProt B4XEP4) R353K	136 nM
raccoon dog ACE2 (rdACE2), peptidase domain (PD), wild type (from UniProt B4XEP4) L24Q	283 nM
raccoon dog ACE2 (rdACE2), peptidase domain (PD), wild type (from UniProt B4XEP4) E38D	245 nM
